Measurements as given in article PMC6547619, “Development of an anti‐BAG3 humanized antibody for treatment of pancreatic cancer” (Molecular Oncology, 2019).
Numbering of substitutions follows the chain as printed.

Key:
Details in all cases: both partners purified
[1] = target: T1, E. coli rBAG3 (Abcam) (Homo sapiens (assumed; species of …, UniProt O95817); assay: SPR; Biacore 2000, 25 °C; AC-2 captured on an anti-mouse Fc antibody covalently coupled on a CM5 chip; rBAG3 flowed at 0.39 to 200 nM; 2-state reaction model
T1 construct: BAG3 (BCL2-associated athanogene 3), recombinant, made in E. coli, bought from Abcam; Antigen of the SPR experiments only; no catalogue number is printed; also called antigen; source: bought: Abcam (E. coli rBAG3)

[2] = target: T1, E. coli rBAG3 (Abcam); assay: SPR; Biacore 2000, 25 °C; humanized variants captured on an anti-human Fc antibody covalently coupled on a CM5 chip; rBAG3 flowed at variable concentrations
[3] = target: T2, murine rBAG3 (Mus musculus, UniProt Q9JLV1); assay: immunoprecipitation; BAG3-H2L4 used to immunoprecipitate murine rBAG3; immunoblot with a rabbit polyclonal anti-BAG3
T2 construct: the cleavage released the full-length polypeptide; also called murine form of BAG3; not shown: biotinylated tag (AviTag, from the vector pAViTag-N N-His SUMO), N-terminal, cleaved; His, N-terminal, cleaved; SUMO, N-terminal, cleaved

[4] = target: T3, human recombinant BAG3 protein (Homo sapiens, UniProt O95817); assay: ELISA; direct ELISA; plates coated with human recombinant BAG3 (1 μg/mL in PBS); humanized antibodies in scalar dilutions, 500 to 15.6 ng/mL; HRP anti-human IgG, O.D. 450 nm
T3 construct: the cleavage released the full-length polypeptide; The ELISA methods say only 'human recombinant BAG3 protein'; For the flow cytometry it was labelled with FITC (FluoroTag FITC conjugation kit); also called rBAG3; full-length BAG3; not shown: biotinylated tag (AviTag, from the vector pAViTag-N N-His SUMO), N-terminal, cleaved; His, N-terminal, cleaved; SUMO, N-terminal, cleaved
T3 sequence (O95817 whole entry): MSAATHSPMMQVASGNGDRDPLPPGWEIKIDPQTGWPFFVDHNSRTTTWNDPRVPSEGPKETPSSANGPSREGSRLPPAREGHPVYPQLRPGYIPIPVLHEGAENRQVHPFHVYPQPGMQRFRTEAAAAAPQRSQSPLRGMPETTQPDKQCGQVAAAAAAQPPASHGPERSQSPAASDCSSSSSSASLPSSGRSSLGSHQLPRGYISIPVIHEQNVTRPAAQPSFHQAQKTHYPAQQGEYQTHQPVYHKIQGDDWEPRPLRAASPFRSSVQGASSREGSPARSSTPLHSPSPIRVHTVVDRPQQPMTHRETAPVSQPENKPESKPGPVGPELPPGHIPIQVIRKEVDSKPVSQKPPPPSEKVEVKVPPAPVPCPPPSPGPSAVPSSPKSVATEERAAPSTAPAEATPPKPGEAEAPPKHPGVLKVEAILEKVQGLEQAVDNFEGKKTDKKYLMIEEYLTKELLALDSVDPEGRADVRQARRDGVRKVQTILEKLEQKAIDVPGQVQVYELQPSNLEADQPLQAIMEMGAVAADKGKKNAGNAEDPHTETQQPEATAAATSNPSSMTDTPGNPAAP

T1 sequence (O95817 whole entry): as above
T2 sequence (Q9JLV1 whole entry): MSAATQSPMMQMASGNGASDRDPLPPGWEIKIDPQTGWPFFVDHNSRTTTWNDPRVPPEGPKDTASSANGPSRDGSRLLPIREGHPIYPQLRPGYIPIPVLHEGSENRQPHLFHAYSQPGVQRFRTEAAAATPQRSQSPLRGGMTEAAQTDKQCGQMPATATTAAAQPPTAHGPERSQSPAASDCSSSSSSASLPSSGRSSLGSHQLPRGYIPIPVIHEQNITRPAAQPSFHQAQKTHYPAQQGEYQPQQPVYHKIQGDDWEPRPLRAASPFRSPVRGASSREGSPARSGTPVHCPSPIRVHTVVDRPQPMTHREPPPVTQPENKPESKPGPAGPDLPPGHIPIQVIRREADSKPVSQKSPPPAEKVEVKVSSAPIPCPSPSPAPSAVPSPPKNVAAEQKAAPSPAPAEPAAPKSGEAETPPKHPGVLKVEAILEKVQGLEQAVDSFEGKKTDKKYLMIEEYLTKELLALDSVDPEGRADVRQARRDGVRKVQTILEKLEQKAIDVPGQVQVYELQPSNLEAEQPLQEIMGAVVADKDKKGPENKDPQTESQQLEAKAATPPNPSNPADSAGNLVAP

B1: murine anti-BAG3 antibody AC-2 (antibody, V domains shown)
VH: EVQLQQSGAELVKPGASVKLSCTASGFNIKDTYMYWVKQRPEQGLEWIGGVDPANGNTRYDPKFQGKATLTADTSSSTAYLQLSSLTSEDTAVYYCGRDGAMDYWGQGTSVTVSS
VL: DIVMSQSPSSLAVSVGEKVTMSCKSSQSLLYSSNQKNYLAWHQQKPGQSPKLLIYWASTRESGVPDRFTGSGSGTDFTLTISSVKAEDLAIYYCQQYYTYPLTFGAGTKLELK
notes: murine heavy chain; murine light chain; also called mAb AC-2; anti-BAG3 clone AC-2; source: mouse hybridoma clone AC-2 (supernatant in the peptide ELISA)
[1]
  Kd: 14.4 nM

B2: BAG3-H2L4 (antibody, V domains shown)
VH: QVQLVQSGAEVKKPGASVKVSCKASGFNIKDTYMYWVRQAPGQGLEWMGGVDPANGNTRYDPKFQGRVTLTRDTSTSTVYMELSSLRSEDTAVYYCGRDGAMDYWGQGTLVTVSS
VL: B1 VL with S5T, S9D, V15L, K18R, V19A, S49P, T69S, V84L, K85Q, L112I
notes: humanized heavy chain variant H2: CDRs of AC-2 (humanized light chain variant L4: CDRs of AC-2 (IgG1, kappa)); also called humanized anti-BAG3 antibody; humanized BAG3-H2L4 antibody; source: CHO, transiently transfected, purified from supernatant (Protein A FPLC), Evitria AG
[2]
  binding result: binds
[3]
  binding result: binds
[4]
  binding result: binds

B3: BAG3-H4L2 (antibody, V domains shown)
VH: EVQLVQSGAEVKKPGATVKISCKVSGFNIKDTYMYWVQQAPGKGLEWMGGVDPANGNTRYDPKFQGRVTITADTSTDTAYMELSSLRSEDTAVYYCARDGAMDYWGQGTLVTVSS
VL: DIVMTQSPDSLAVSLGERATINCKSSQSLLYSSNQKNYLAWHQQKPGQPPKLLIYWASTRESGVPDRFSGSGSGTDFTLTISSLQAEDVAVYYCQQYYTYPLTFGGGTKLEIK
notes: humanized heavy chain variant H4: CDRs of AC-2 (humanized light chain variant L2: CDRs of AC-2 (IgG1, kappa)); source: CHO, transiently transfected, purified from supernatant (Protein A FPLC), Evitria AG
[2]
  binding result: binds
[4]
  binding result: binds
